Results on 1 molecule are retold here after article PMC3064766 (Nucleic Acids Research, 2010).

One experiment deals with myc-tagged Mot1p (S. cerevisiae, UniProt P32333 1-1867). The experiment can be described thus: co-IP.
The target in another experiment is T1, myc-tagged Cbp80p (S. cerevisiae, UniProt P34160 1-861).
T1 sequence (looked up): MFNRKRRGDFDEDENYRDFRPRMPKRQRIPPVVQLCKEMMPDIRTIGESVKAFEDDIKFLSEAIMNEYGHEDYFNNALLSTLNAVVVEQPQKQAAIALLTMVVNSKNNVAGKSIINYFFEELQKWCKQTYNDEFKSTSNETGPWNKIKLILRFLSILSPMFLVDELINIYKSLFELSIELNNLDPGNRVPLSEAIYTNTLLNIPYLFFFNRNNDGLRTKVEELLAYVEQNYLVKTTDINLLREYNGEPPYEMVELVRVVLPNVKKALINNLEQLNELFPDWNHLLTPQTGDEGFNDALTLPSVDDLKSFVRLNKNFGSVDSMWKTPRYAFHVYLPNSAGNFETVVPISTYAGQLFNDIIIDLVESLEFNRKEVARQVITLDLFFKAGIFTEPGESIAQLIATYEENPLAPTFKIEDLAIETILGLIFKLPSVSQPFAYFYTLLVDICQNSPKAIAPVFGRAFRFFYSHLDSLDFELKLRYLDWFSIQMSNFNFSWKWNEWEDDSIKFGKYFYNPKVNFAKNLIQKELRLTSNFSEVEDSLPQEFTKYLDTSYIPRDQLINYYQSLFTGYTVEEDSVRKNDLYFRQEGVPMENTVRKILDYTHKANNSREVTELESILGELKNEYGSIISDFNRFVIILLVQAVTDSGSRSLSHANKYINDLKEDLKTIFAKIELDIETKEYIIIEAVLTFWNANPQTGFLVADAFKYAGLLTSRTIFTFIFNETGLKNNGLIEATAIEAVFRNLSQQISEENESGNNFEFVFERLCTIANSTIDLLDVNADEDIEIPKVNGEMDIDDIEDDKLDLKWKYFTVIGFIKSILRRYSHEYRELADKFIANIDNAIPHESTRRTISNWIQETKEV
The experiment can be described thus: pull-down.

Sequence of myc-tagged Mot1p (P32333 whole entry): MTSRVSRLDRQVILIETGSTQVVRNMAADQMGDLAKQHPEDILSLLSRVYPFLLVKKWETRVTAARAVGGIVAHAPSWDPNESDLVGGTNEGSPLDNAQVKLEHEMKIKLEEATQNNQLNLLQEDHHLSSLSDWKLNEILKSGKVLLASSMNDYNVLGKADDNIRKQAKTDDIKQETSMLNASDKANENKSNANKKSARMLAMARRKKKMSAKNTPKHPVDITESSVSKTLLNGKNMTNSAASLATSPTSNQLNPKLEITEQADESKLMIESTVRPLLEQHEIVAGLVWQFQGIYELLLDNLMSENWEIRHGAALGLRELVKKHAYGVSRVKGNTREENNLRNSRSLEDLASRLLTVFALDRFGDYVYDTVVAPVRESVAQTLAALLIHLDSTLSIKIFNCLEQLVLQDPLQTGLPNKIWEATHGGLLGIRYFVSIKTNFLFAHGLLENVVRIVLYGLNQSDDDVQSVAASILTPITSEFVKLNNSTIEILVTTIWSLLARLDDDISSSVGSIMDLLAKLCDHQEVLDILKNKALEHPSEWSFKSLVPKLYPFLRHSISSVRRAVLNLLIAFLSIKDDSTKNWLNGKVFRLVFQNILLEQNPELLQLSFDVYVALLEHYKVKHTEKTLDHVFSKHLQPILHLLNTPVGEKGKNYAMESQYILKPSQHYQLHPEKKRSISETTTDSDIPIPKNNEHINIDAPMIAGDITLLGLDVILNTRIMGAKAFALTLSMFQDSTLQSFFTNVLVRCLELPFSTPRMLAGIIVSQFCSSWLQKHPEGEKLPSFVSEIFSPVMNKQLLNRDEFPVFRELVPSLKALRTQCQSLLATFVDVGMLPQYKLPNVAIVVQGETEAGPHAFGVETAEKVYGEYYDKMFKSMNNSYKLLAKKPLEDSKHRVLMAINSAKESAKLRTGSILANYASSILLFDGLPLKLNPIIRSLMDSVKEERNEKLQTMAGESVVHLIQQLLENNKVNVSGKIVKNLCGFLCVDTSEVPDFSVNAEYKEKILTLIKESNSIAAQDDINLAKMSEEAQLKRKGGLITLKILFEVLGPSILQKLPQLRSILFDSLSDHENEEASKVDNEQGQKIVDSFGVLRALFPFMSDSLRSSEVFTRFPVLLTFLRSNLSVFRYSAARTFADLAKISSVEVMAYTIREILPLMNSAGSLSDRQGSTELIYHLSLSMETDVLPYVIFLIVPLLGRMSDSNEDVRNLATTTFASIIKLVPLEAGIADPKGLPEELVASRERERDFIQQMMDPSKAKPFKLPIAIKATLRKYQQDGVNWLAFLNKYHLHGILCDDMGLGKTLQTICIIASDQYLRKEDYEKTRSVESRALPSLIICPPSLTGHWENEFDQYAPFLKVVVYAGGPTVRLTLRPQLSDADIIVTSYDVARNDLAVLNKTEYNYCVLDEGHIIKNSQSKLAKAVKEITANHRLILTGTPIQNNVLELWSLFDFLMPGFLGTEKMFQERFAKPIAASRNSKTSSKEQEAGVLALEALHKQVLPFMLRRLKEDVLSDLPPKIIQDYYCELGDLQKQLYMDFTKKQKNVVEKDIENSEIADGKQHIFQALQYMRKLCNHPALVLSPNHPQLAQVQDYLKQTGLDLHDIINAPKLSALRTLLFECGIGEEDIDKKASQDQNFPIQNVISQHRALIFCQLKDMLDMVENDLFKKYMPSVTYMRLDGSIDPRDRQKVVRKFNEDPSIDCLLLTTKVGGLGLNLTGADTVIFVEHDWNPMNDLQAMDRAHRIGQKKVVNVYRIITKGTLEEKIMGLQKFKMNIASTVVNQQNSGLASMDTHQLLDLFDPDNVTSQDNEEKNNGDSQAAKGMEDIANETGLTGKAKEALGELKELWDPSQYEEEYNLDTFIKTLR

B1: HA-tagged Cbp20p (natural protein, S. cerevisiae, UniProt Q08920 1-208, looked up)
chain: MSLEEFDEVKYDHSTKRLDTPSRYLLRKARRNPNGLQELRESMKSSTIYVGNLSFYTSEEQIYELFSKCGTIKRIIMGLDRFKFTPCGFCFIIYSCPDEALNALKYLSDTKLDEKTITIDLDPGFEDGRQFGRGKSGGQVSDELRFDFDASRGGFAIPFAERVGVPHSRFDNSSSQSNTNNYIPPPDAMGTFRPGFDEEREDDNYVPQ
Turning to B1, the binding result with myc-tagged Mot1p and with myc-tagged Cbp80p was “binds” each time.
